Measurements: patent publication US20230287082A1 (published 2023)
Numbering of substitutions follows the chain as printed.

B1: ΔB7-H6_S3#14-SEED-PGLALA (bispecific antibody, part only; not given: SEED Fc chains and hu225 Fab, part only)
chain, part: DLKVEMMAGGTQITPLNDNVTIFCNIFYSQPLNITTMGITWFWKSLTFDKEVKVFEFYGDHQEAFRPGAIVSPWRLKSGDASLRLPGIQLEEAGEYRCEVVVTPYKAQGTVQLEVVASPAS
B2: ΔB7-H6_S3#24-SEED-PGLALA (bispecific antibody, part only; not given: SEED Fc chains and hu225 Fab, part only)
chain, part: B1 chain, part with T36I
B3: ΔB7-H6_S2#11-SEED-PGLALA (bispecific antibody, part only; not given: SEED Fc chains and hu225 Fab, part only)
chain, part: B1 chain, part with Y58W, G59Q, Y105L
B4: ΔB7-H6_S3#32-SEED-PGLALA (bispecific antibody, part only; not given: SEED Fc chains and hu225 EGFR Fab, part only)
chain, part: B1 chain, part with T36E, Y58W, Y105V
B5: ΔB7-H6_S3#16-SEED-PGLALA (bispecific antibody, part only; not given: SEED Fc chains and hu225 Fab, part only)
chain, part: B1 chain, part with T36L
B6: ΔB7-H6_S3#18-SEED-PGLALA (bispecific antibody, part only; not given: SEED Fc chains and hu225 Fab, part only)
chain, part: B1 chain, part with T36Y, Y58W
B7: ΔB7-H6_S3#2-SEED-PGLALA (bispecific antibody, part only; not given: SEED Fc chains and hu225 EGFR Fab, part only)
chain, part: B1 chain, part with T36W, Y58W
B8: ΔB7-H6_S3#4-SEED-PGLALA (bispecific antibody, part only; not given: SEED Fc chains and hu225 Fab, part only)
chain, part: B1 chain, part with T36I, Y58W, Y105L
B9: ΔB7-H6_S2#6-SEED-PGLALA (bispecific antibody, part only; not given: SEED Fc chains and hu225 EGFR Fab, part only)
chain, part: B1 chain, part with S29F, T36E, Y58F, V101I, Y105L
B10: ΔB7-H6_S3#31-SEED-PGLALA (bispecific antibody, part only; not given: SEED Fc chains and hu225 EGFR Fab, part only)
chain, part: B1 chain, part with T36I, Y105L
B11: ΔB7-H6_S2#13-SEED-PGLALA (bispecific antibody, part only; not given: SEED Fc chains and hu225 Fab, part only)
chain, part: B1 chain, part with T36S, Y58W
B12: ΔB7-H6_S2#10-SEED-PGLALA (bispecific antibody, part only; not given: SEED Fc chains and hu225 EGFR Fab, part only)
chain, part: B1 chain, part with T36L, Y58W, R75G, Y105L
B13: ΔB7-H6_S3#25-SEED-PGLALA (bispecific antibody, part only; not given: SEED Fc chains and hu225 Fab, part only)
chain, part: B1 chain, part with T36W
B14: ΔB7-H6_wt-SEED-PGLALA (bispecific antibody, part only; not given: SEED Fc chains and hu225 Fab, part only)
chain, part: B1 chain, part with T36S, Y58F, Y105L
B15: ΔB7-H6_S2#12-SEED-PGLALA (bispecific antibody, part only; not given: SEED Fc chains and hu225 Fab, part only)
chain, part: B1 chain, part with T36H, F42L, Y105L
B16: ΔB7-H6_S2#14-SEED-PGLALA (bispecific antibody, part only; not given: SEED Fc chains and hu225 Fab, part only)
chain, part: B1 chain, part with Y58F
B17: ΔB7-H6_S3#20-SEED-PGLALA (bispecific antibody, part only; not given: SEED Fc chains and hu225 Fab, part only)
chain, part: B1 chain, part with T36H, Y58W, V101F, Y105L
B18: ΔB7-H6_S2#5-SEED-PGLALA (bispecific antibody, part only; not given: SEED Fc chains and hu225 Fab, part only)
chain, part: B1 chain, part with T36S, F42L, Y58W, V101F
B19: ΔB7-H6_S2#4-SEED-PGLALA (bispecific antibody, part only; not given: SEED Fc chains and hu225 Fab, part only)
chain, part: B1 chain, part with T36H, G59A, F65I
B20: ΔB7-H6_S3#15-SEED-PGLALA (bispecific antibody, part only; not given: SEED Fc chains and hu225 Fab, part only)
chain, part: B1 chain, part with T36I, Y58W
B21: ΔB7-H6_S3#27-SEED-PGLALA (bispecific antibody, part only; not given: SEED Fc chains and hu225 EGFR Fab, part only)
chain, part: B1 chain, part with Y58W, V101I

Tests used:
[1] = biological target: human NKp30 (human) (UniProt O14931); test: BLI, ratio to ΔB7-H6_wt
human NKp30 (human), sequence (O14931 19-135 limits assumed): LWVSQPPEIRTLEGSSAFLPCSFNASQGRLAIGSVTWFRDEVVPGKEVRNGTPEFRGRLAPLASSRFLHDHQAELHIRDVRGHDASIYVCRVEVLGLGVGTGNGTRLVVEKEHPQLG

[2] = biological target: NKp30 on human NK cells (human) (UniProt O14931); test: cell-based or functional assay
NKp30 on human NK cells (human), sequence (O14931 19-201): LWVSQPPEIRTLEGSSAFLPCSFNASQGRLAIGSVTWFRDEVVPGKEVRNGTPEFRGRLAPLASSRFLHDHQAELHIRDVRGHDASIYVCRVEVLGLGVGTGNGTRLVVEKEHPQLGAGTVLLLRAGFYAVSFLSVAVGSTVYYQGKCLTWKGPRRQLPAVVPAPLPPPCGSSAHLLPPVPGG

[3] = biological target: human NKp30 (human) (UniProt O14931); test: BLI, immunoligand on anti-hFc tip

Row | Binder | KD improvement compared to ΔB7-H6 wt [1] [fold] | x-fold KD improvement [1] [fold] | x-fold Koff improvement [1] [fold] | A431 EC50 with PBMC (pM) [2] [pM] | A549 EC50 with PBMC (pM) [2] [pM] | EC50 (pM), A431 lysis with PBMC [2] [pM] | EC50 improvement compared to ΔB7-H6 wt [2] [fold] | Kd [3] [nM] | koff [3] [s⁻¹] | kon [3] [M⁻¹ s⁻¹] | A431 EC50 with NK cells (pM) [2] [pM] | A549 EC50 with NK cells (pM) [2] [pM] | half-maximal killing activity, initial screening [2] [pM] | enhanced potency compared to the wild-type ΔB7-H6 immunoligand, initial screening [2] [fold] | EC50 of A431 lysis with PBMC, initial screening [2] [nM] | increase in potency with purified NK cells on A431 compared to wild-type [2] [fold] | EC50 of tumor cell lysis, initial screening [2] [pM] | improved potency compared to wild-type ΔB7-H6, initial screening [2] [fold]
1 | B1 | 11.9 | 11.9 | 5.2 | 150 | 556 | 21 | 41 | 34.5 | 0.0322 | 933000 |  |  |  |  |  |  |  | 
2 | B2 | 27.4 | 27.5 | 16.1 | 39.7 | 108 | 9.3 | 93 | 14.9 | 0.0104 | 702000 | 3.55 | 35.2 |  |  |  |  |  | 
3 | B3 | 1.7 | 1.7 | 1.5 |  |  | 172 | 5 | 234 | 0.115 | 491000 |  |  |  |  |  |  |  | 
4 | B4 |  |  |  |  |  |  |  | 188 | 0.0766 | 409000 |  |  |  |  |  |  |  | 
5 | B5 | 14.3 | 14.3 | 5.8 | 87.3 | 206 | 29.1 | 30 | 28.7 | 0.0289 | 1.01e+06 |  |  |  |  |  |  |  | 
6 | B6 | 45.1 | 45.1 | 12.4 | 51.1 | 132 | 19.8 | 44 | 9.06 | 0.0136 | 1.5e+06 | 4.31 | 42.5 |  |  |  |  |  | 
7 | B7 |  |  |  |  |  |  |  | 11.7 | 0.0122 | 1.04e+06 |  |  |  |  |  |  |  | 
8 | B8 |  |  |  |  |  |  |  | 23.9 | 0.0149 | 621000 |  |  |  |  |  |  |  | 
9 | B9 |  |  |  |  |  |  |  | 285 | 0.376 | 1.32e+06 |  |  |  |  |  |  |  | 
10 | B10 | 9.4 | 9.4 | 6.3 | 34.8 | 224 | 17.5 | 50 | 43.6 | 0.0269 | 616000 |  |  | 25.1 |  |  |  |  | 
11 | B11 | 2 | 2 | 2 |  |  | 171 | 5 | 205 | 0.0842 | 410000 |  |  |  |  |  |  |  | 
12 | B12 | 2.2 | 2.2 | 1.5 |  |  | 122 | 7 | 187 | 0.111 | 597000 |  |  |  |  |  |  |  | 
13 | B13 | 6.3 | 6.3 | 3.5 | 37.8 | 135 | 9.9 | 88 | 65.2 | 0.0486 | 745000 | 4.25 | 34.6 | 6 | 187 |  |  |  | 
14 | B14 | 1 |  |  | 1840 |  | 868 | 1 | 409 | 0.168 | 412000 | 245 |  |  |  | 1.1 |  |  | 
15 | B15 |  |  |  |  |  |  |  | 291 | 0.162 | 556000 |  |  |  |  |  |  |  | 
16 | B16 | 1.9 | 1.9 | 1.4 |  |  | 158 | 5 | 217 | 0.124 | 570000 |  |  |  |  |  |  |  | 
17 | B17 |  |  |  |  |  |  |  | 61.6 | 0.0642 | 1.04e+06 |  |  |  |  |  |  |  | 
18 | B18 |  |  |  |  |  |  |  | 253 | 0.148 | 585000 |  |  |  |  |  |  |  | 
19 | B19 |  |  |  |  |  |  |  | 147 | 0.122 | 830000 |  |  |  |  |  |  |  | 
20 | B20 | 33 | 33 | 16.6 | 29.9 | 133 | 8.7 | 100 | 12.4 | 0.0101 | 817000 | 2.8 | 31.3 |  |  |  | 87 |  | 
21 | B21 | 4.9 | 4.9 | 3 | 60.2 | 356 | 19.2 | 45 | 83 | 0.0556 | 669000 |  |  |  |  |  |  | 27.6 | 41
